# From patent publication US20250361322A1 (ICONIC THERAPEUTICS, published 2025)
# B1: anti-TF antibody 39A (antibody, human IgG1, V domains shown)
# VH: QVQLVQSGAEVKKPGSSVKVSCKASGGTFSSNAIGWVRQAPGQGLEWMGSIIPIIGFANYAQKFQGRVTITADESTSTAYMELSSLRSEDTAVYYCARDSGYYYGASSFGMDVWGQGTTVTVSS
# VL: EIVMTQSPATLSVSPGERATLSCRASQSVSSNLAWYQQKPGQAPRLLIYGASTRATGIPARFSGSGSGTEFTLTISSLQSEDFAVYYCEQYNNLPLTFGGGTKVEIK
# B2: 39A (antibody, IgG1, V domains shown)
# VH: QVQLVQSGAEVKKPGSSVKVSCKASGGTFSSNAIGWVRQAPGQGLEWMGSIIPIIGFANYAQKFQGRVTITADESTSTAYMELSSLRSEDTAVYYCARDSGYYYGASSFGMDVWGQGTTVTVSS
# VL: EIVMTQSPATLSVSPGERATLSCRASQSVSSNLAWYQQKPGQAPRLLIYGASTRATGIPARFSGSGSGTEFTLTISSLQSEDFAVYYCEQYNNLPLTFGGGTKVEIK
# B3: 43B1 (antibody, IgG1, V domains shown)
# VH: QVQLQESGPGLVKPSQTLSLTCTVSGGSISSGQYWSWIRQHPGKGLEWIGEIYYSGSTRYNPSLKSRVTISVDTSKNQFSLKLSSVTAADTAVYYCARDAPYYYGGGYYYYMDVWGKGTTVTVSS
# VL: EIVLTQSPGTLSLSPGERATLSCRASESVDSSYLAWYQQKPGQAPRLLIYGASTRQTGIPDRFSGSGSGTDFTLTISRLEPEDFAVYYCQQAGVVPYTFGGGTKVEIK
# B4: anti-TF antibody 43Ea (antibody, human IgG1, V domains shown)
# VH: QVQLQESGPGLVKPSQTLSLTCTVSGGSISSGQYWSWIRQHPGKGLEWIGEIYYSGSTRYNPSLKSRVTISVDTSKNQFSLKLSSVTAADTAVYYCARDTPYYYDGGYYYYMDVWGKGTTVTVSS
# VL: EIVLTQSPGTLSLSPGERATLSCRASQSVSSSYLAWYQQKPGQAPRLLIYGASSRATGIPDRFSGSGSGTDFTLTISRLEPEDFAVYYCQQVGVVPYTFGGGTKVEIK
# B5: anti-TF antibody 43B1 (antibody, human IgG1, V domains shown)
# VH: QVQLQESGPGLVKPSQTLSLTCTVSGGSISSGQYWSWIRQHPGKGLEWIGEIYYSGSTRYNPSLKSRVTISVDTSKNQFSLKLSSVTAADTAVYYCARDAPYYYGGGYYYYMDVWGKGTTVTVSS
# VL: EIVLTQSPGTLSLSPGERATLSCRASESVDSSYLAWYQQKPGQAPRLLIYGASTRQTGIPDRFSGSGSGTDFTLTISRLEPEDFAVYYCQQAGVVPYTFGGGTKVEIK
# B6: TF-011 (antibody, V domains shown)
# VH: EVQLLESGGGLVQPGGSLRLSCAASGFTFSNYAMSWVRQAPGKGLEWVSSISGSGDYTYYTDSVKGRFTISRDNSKNTLYLQMNSLRAEDTAVYYCARSPWGYYLDSWGQGTLVTVSS
# VL: DIQMTQSPPSLSASAGDRVTITCRASQGISSRLAWYQQKPEKAPKSLIYAASSLQSGVPSRFSGSGSGTDFTLTISSLQPEDFATYYCQQYNSYPYTFGQGTKLEIK
# B7: anti-TF antibody 29E (antibody, human IgG1, V domains shown)
# VH: QVQLVESGGGVVQPGRSLRLSCAASGFTFRSYGMHWVRQAPGKGLEWVAVITYDGINKYYADSVEGRFTISRDNSKNTLYLQMNSLRAEDTAVYYCARDGVYYGVYDYWGQGTLVTVSS
# VL: not shown
# B8: 29E (antibody, IgG1, V domains shown)
# VH: QVQLVESGGGVVQPGRSLRLSCAASGFTFRSYGMHWVRQAPGKGLEWVAVITYDGINKYYADSVEGRFTISRDNSKNTLYLQMNSLRAEDTAVYYCARDGVYYGVYDYWGQGTLVTVSS
# VL: not shown
# B9: anti-TF antibody 1F (antibody, human IgG1, V domains shown)
# VH: EVQLLESGGGLVQPGGSLRLSCAASGFTFSDYAMGWVRQAPGKGLEWVSTISGSGGLTYYADSVKGRFTISRDNSKNTLYLQMNSLRAEDTAVYYCAKAPYGYYMDVWGKGTTVTVSS
# VL: not shown
# B10: anti-TF antibody 54E (antibody, human IgG1, V domains shown)
# VH: QVQLVQSGAEVKKPGASVKVSCKASGYTFANYYMHWVRQAPGQGLEWMGIINPSGGITVYAQKFQGRVTMTRDTSTSTVYMELSSLRSEDTAVYYCARGGSKVAALAFDIWGQGTMVTVSS
# VL: DIQMTQSPSSLSASVGDRVTITCQASQDISNSLNWYQQKPGKAPKLLIYDASNLETGVPSRFSGSRSGTDFTFTISSLQPEDIATYYCQQYNFHPLTFGGGTKVEIK
# B11: 5G9 (humanized TF8-5G9, CNTO 860) (antibody, V domains shown)
# VH: QVQLVESGGGVVQPGRSLRLSCKASGFNIKDYYMHWVRQAPGKGLEWIGLIDPENGNTIYDPKFQGRFTISADNSKNTLFLQMDSLRPEDTAVYYCARDNSYYFDYWGQGTPVTVSS
# VL: DIQMTQSPSSLSASVGDRVTITCKASQDIRKYLNWYQQKPGKAPKLLIYYATSLADGVPSRFSGSGSGTDYTFTISSLQPEDIATYYCLQHGESPYTFGQGTKLEIT
# What was measured:
# Assay in all cases: cell-based or functional assay
# [1] = molecular target: Relipidated TF
# [2] = molecular target: human Tissue Factor (hTF) (human, UniProt P13726 33-295)
# [3] = molecular target: Relipidated TF (UniProt P13726 33-295, limits assumed)
Binder,"% ETP, TGA with 10 min antibody pre-incubation, 10 nM antibody [1] [%]","% Peak IIa, TGA with 10 min antibody pre-incubation, 10 nM antibody [1] [%]","% Peak IIa, TGA with 10 min antibody pre-incubation, 50 nM antibody [1] [%]","% Peak IIa, TGA with 10 min antibody pre-incubation, 100 nM antibody [1] [%]","% ttPeak, TGA with 10 min antibody pre-incubation, 10 nM antibody [1] [%]","% ttPeak, TGA with 10 min antibody pre-incubation, 50 nM antibody [1] [%]","Lag Time, TGA with 10 min antibody pre-incubation, 10 nM antibody [1] [min]","Lag Time, TGA with 10 min antibody pre-incubation, 50 nM antibody [1] [min]","Lag Time, TGA with 10 min antibody pre-incubation, 100 nM antibody [1] [min]","Peak IIa, TGA with 10 min antibody pre-incubation, 10 nM antibody [1] [nM]","Peak IIa, TGA with 10 min antibody pre-incubation, 50 nM antibody [1] [nM]","Peak IIa, TGA with 10 min antibody pre-incubation, 100 nM antibody [1] [nM]","ttPeak, TGA with 10 min antibody pre-incubation, 10 nM antibody [1] [min]","ttPeak, TGA with 10 min antibody pre-incubation, 50 nM antibody [1] [min]","ttPeak, TGA with 10 min antibody pre-incubation, 100 nM antibody [1] [min]","IC50, cell viability of A431 cells, Secondary ADC (antibody with anti-human Fc Fab:MMAF), Continuous (FIG. 18B) [2] [nM]","% Peak IIa, Ab conc. 10 nM [3] [%]","% Peak IIa, Ab conc. 50 nM [3] [%]","% ttPeak, Ab conc. 10 nM [3] [%]","% ttPeak, Ab conc. 50 nM [3] [%]",also measured
B1,0,13,8,7,319,491,19.6,30.7,33.6,36,22,19,29.3,41.4,44.6,0.08,,,,,"% ttPeak, TGA with 10 min antibody pre-incubation, 100 nM antibody [1]: 537%"
B2,,,,,,,,,,,,,,,,,37,11,135,397,"% ETP, Ab conc. 10 nM [3]: 84%; % Peak IIa, Ab conc. 100 nM [3]: 9%; % ttPeak, Ab conc. 100 nM [3]: 465%"
B3,,,,,,,,,,,,,,,,,89,72,9,29,"% ttPeak, Ab conc. 100 nM [3]: 37%"
B4,,,,,,,,,,,,,,,,0.13,,,,,
B5,,,,,,,,,,,,,,,,0.12,,,,,
B6,,,,,,,,,,,,,,,,,47,12,86,284,"% ETP, Ab conc. 10 nM [3]: 85%"
B7,77,36,30,28,159,237,9.4,14.1,14.7,98,83,76,18.1,23.6,24.3,0.1,,,,,"% ETP, TGA with 10 min antibody pre-incubation, 50 nM antibody [1]: 72%; % ETP, TGA with 10 min antibody pre-incubation, 100 nM antibody [1]: 66%; % ttPeak, TGA with 10 min antibody pre-incubation, 100 nM antibody [1]: 247%; ETP, TGA with 10 min antibody pre-incubation, 10 nM antibody [1]: 1410 nM·min; ETP, TGA with 10 min antibody pre-incubation, 50 nM antibody [1]: 1300 nM·min; ETP, TGA with 10 min antibody pre-incubation, 100 nM antibody [1]: 1200 nM·min"
B8,,,,,,,,,,,,,,,,,71,29,48,186,"% ETP, Ab conc. 10 nM [3]: 95%; % ETP, Ab conc. 50 nM [3]: 67%; % ETP, Ab conc. 100 nM [3]: 62%; % Peak IIa, Ab conc. 100 nM [3]: 24%; % ttPeak, Ab conc. 100 nM [3]: 232%"
B9,41,16,8,7,220,433,13.8,26.5,29.5,44,23,20,22.4,37.3,40.8,0.07,,,,,"% ttPeak, TGA with 10 min antibody pre-incubation, 100 nM antibody [1]: 483%; ETP, TGA with 10 min antibody pre-incubation, 10 nM antibody [1]: 742 nM·min"
B10,83,43,16,13,96,303,6.5,18.3,22.3,121,44,37,13.7,28.2,33,0.11,,,,,"ETP, TGA with 10 min antibody pre-incubation, 10 nM antibody [1]: 1520 nM·min"
B11,,,,,,,,,,,,,,,,,24,8,135,338,"% ETP, Ab conc. 10 nM [3]: 58%; % Peak IIa, Ab conc. 100 nM [3]: 8%; % ttPeak, Ab conc. 100 nM [3]: 401%"
